The values below come from PMC5503811.

In assay [1] the target is ALDH7A1 G255D (human). Put plainly: AUC.
Assay [2] has as its target wild-type human aldehyde dehydrogenase 7A1 (human). The assay is described as follows: AUC.

In assay [1], ALDH7A1 G255D (enzyme) displayed a Ka of 750000 M⁻¹.
For orientation: stoichiometry N means a count of units in the complex or per binding partner. In assay [2], “wild-type human aldehyde dehydrogenase 7A1 (enzyme)” yielded a stoichiometry N of 4.
